Assay results as given in doi:10.1101/790931, “Pal stabilises the bacterial outer membrane during constriction by a mobilisation-and-capture mechanism” (bioRxiv, 2019).
No end group written: not given here.

Target: T1, C-terminal domain of Pseudomonas aeruginosa TolA (TolA^224-347) (Pseudomonas aeruginosa, UniProt P50600 224-347)
T1 construct: TolA, Pseudomonas aeruginosa, C-terminal domain, residues 224-347; Uniformly 15N- or 13C/15N-labelled for the NMR experiments, unlabelled for fluorescence anisotropy; also called wild-type TolA (residues 224-347); C-terminal domain of TolA; not shown: His tag, N-terminal, cleaved; Im9, N-terminal, cleaved
T1 sequence (looked up): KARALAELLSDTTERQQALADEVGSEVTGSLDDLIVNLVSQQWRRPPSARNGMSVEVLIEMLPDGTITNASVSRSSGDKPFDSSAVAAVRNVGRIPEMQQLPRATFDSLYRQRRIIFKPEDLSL
Test: NMR titration; TolB peptide added to 0.6 mM 15N-labelled TolA; 1H,15N-HSQC; 20 mM phosphate, 100 mM NaCl, pH 7.6; slow exchange, ratio of bound and free peak volumes; fits for Ser271, Ser306, Gly316, Leu347
Conditions: both partners purified

B1: P. aeruginosa TolB[22-34] peptide (the TolA box) (peptide)
peptide: ADPLVISSGNDRA-NH2
notes: TolB, Pseudomonas aeruginosa, residues 22-34, the N-terminus of secreted TolB; also called TolB[22-33]; (in supplementary legends); N-terminus of TolB; source: synthetic peptide (thinkpeptides UK (ProImmune))
Kd: 220 µM
